Source: US20160331840A1

Target: InlB (recombinant His-tagged InlB321 peptide, aa 36-321 of internalin B) (Listeria monocytogenes)
Assay: FACS competition; InlB pre-incubated with soluble MET peptide at 1:1 molar ratio

**Q.** For “MET peptide (soluble peptide derived from the extracellular, ligand-binding domain of MET; YCP2247 SPEED BioSystems) (from UniProt P08581 25-932) (receptor)”, which percent reduction of InlB binding to H1993 cells is on record?
**A.** 50%
